Results: PMC6996395
“Also recorded” adds a separate entry of the source.

Legend:
Experiment in all cases: in situ proximity ligation assay
Details in all cases: reference: wild-type R-region
[1] = molecular target: CFTR (split-CFTR: front half, R-region and back half as separate polypeptides) back half, 837-1480 (UniProt P13569)
[2] = molecular target: CFTR (split-CFTR: front half, R-region and back half as separate polypeptides) front half, 1-634 (UniProt P13569)
[3] = molecular target: CFTR (split-CFTR: front half, R-region and back half as separate polypeptides) front half, 1-634 (UniProt P13569); remark: listed apart in the source

CFTR (split-CFTR: front half, R-region and back half as separate polypeptides) R-region, 635-836 (from UniProt P13569) S686D, sequence (P13569 1-634, stated change not applied): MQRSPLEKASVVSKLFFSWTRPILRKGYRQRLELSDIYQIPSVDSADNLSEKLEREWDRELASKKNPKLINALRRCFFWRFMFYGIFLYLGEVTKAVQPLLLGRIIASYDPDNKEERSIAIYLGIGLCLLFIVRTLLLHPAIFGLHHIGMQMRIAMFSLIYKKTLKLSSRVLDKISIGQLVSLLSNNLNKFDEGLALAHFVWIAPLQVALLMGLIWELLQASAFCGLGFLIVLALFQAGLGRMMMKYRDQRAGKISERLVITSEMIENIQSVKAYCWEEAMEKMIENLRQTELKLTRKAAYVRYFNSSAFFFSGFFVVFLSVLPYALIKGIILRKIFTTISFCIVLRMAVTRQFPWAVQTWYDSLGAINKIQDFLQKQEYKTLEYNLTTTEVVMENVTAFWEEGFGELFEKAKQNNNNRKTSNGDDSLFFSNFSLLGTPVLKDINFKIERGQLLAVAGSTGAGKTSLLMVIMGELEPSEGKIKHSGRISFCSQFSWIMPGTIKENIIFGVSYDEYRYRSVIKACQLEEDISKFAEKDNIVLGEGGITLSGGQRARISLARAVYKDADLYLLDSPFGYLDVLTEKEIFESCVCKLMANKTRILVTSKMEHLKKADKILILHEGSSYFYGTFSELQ

CFTR (split-CFTR: front half, R-region and back half as separate polypeptides) R-region, 635-836 (from UniProt P13569) S641A/T682A
other: PLA CTCF ([1]; sites S641,T682): stronger; reference 3.41 ± 0.20 | other: PLA CTCF ([2]; sites S641,T682): weaker; reference 3.90 ± 0.18; also recorded: stronger; reference 7.91 ± 0.21 | other: PLA CTCF ([3]; sites S641,T682): stronger; reference 3.29 ± 0.24

CFTR (split-CFTR: front half, R-region and back half as separate polypeptides) R-region, 635-836 (from UniProt P13569) S686A
other: PLA CTCF ([1]; sites S686): weaker; reference 3.41 ± 0.20 | other: PLA CTCF ([2]; sites S686): stronger; reference 3.90 ± 0.18; also recorded: same; reference 5.67 ± 0.55; also recorded: weaker; reference 7.91 ± 0.21 | other: PLA CTCF ([3]; sites S686): weaker; reference 3.29 ± 0.24

CFTR (split-CFTR: front half, R-region and back half as separate polypeptides) R-region, 635-836 (from UniProt P13569) S686D
other: PLA CTCF ([2]; sites S686): same; reference 5.67 ± 0.55; also recorded: weaker; reference 7.91 ± 0.21 | other: PLA CTCF ([3]; sites S686): stronger; reference 3.29 ± 0.24
